In paper PMC2213607 (The Journal of Cell Biology, 2008):
Where a chain is given by its changes, count along the chain named. Names may count otherwise.

B1: GCC185 C-110 (fragment of the 110 C-terminal-most amino acids of GCC185) (domain or fragment, UniProt Q8IWJ2 1575-1684, looked up)
chain: LNGLLRETEATNAILMEQIKLLKSEIRRLERNQEREKSAANLEYLKNVLLQFIFLKPGSERERLLPVINTMLQLSPEEKGKLAAVAQGEEENASRSSGWASYLHSWSGLR
B2: GCC185 C-110 I1588A/L1595A (domain or fragment, UniProt Q8IWJ2 1575-1684, looked up)
chain: B1 chain with I14A, L21A

Assays:
[1] = molecular target: His-tagged (6×) human Rab6A (human, UniProt P20340 1-208); experiment: pull-down
[2] = molecular target: the molecule itself

Chain of His-tagged (6×) human Rab6A (P20340 whole entry): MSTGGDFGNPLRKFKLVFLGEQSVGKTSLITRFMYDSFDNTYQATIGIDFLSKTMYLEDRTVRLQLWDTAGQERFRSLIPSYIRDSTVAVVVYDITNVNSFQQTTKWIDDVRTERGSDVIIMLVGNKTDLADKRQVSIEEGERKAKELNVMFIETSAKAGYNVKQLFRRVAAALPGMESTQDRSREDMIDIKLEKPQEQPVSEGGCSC

| Binder | binding result [1] | stoichiometry N [2] |
| --- | --- | --- |
| B1 | binds | – |
| B2 | – | 2 |
